Data reported in patent publication US20250051455A1 (Hoffmann-La Roche, published 2025).
Positions count from the first letter of the chain named.

B1: HLA-G-0090 (antibody, V domains shown)
VH: QVQLQQSGPGLLKPSQTLSLTCAISGDSVSSNRAAWNWIRQSPSRGLEWLGRTYYRSKWYNDYAVSVQGRITLIPDTSKNQFSLRLNSVTPEDTAVYYCASVRAVAPFDYWGQGVLVTVSS
VL: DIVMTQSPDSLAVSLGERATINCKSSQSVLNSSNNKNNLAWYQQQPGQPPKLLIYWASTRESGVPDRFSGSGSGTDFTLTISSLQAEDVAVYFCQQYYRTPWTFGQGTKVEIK
notes: Human antibody from humanized OmniRat (OMT) rats
B2: HLA-G-0031 (antibody, V domains shown)
VH: QVKLMQSGAALVKPGTSVKMSCNASGYTFTDYWVSWVKQSHGKRLEWVGEISPNSGASNFDENFKDKATLTVDKSTSTAYMELSRLTSEDSAIYYCTRSSHGSFRWFAYWGQGTLVTVSS
VL: AIVLNQSPSSIVASQGEKVTITCRASSSVSSNHLHWYQQKPGAFPKFVIYSTSQRASGIPSRFSGSGSGTSYSFTISRVEAEDVATYYCQQGSSNPYTFGAGTKLELK
notes: Rat monoclonal antibody obtained from CD rats
B3: HLA-G-0039 (antibody, V domains shown)
VH: EVQLLESGGGLVQPGGSLRLSCAASGFTFSSYAMNWVRQAPGKGLEWVSVISGSGVSTYYADSVKGRFTISRDNSRNTLSLQMNSLRAEDTAVYYCAKDGSYNYGYGDYFDYWGQGTLVTVSS
VL: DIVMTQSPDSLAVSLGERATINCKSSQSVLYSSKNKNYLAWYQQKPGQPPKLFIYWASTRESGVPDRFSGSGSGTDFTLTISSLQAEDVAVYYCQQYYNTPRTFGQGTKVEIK
notes: as for B1
B4: HLA-G-0041 (antibody, V domains shown)
VH: B3 VH with S31T, A33G, N35S, S54G, R76K, S80Y, S85R
VL: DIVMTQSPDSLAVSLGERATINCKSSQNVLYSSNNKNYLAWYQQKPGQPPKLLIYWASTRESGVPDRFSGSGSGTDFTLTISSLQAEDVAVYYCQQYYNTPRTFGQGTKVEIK
notes: as for B1

Experiments:
[1] = target: T1, recombinant soluble human HLA-G β2M MHC class I complex, monomer (human); test: ELISA (EC50 rel), biotinylated wt HLA-G monomer on streptavidin plate
T1 construct: His tagged; biotinylated where coated on streptavidin plates, non-biotinylated in SPR; also called HLA-G-0003; wt HLA-G (monomer)
Protocol: (§1) Streptavidin coated plates (Nunc, MicroCoat #11974998001) were coated with 25 μl/well biotinylated human wt HLA-G at a concentration of 250 ng/ml and incubated at 4° C. overnight. After washing (3×90 μl/well with PBST-buffer) 25 μl anti-HLA-G samples (1:3 dilution in OSEP buffer) or reference antibody (G233, Thermo/Pierce #MA1-19449, 500 ng/ml) were added and incubated 1 h at RT. After washing (3×90 μl/well with PBST-buffer) 25 μl/well goat-anti-mouse H+L-POD (Biorad #170-6561, 1:2000 in OSEP) or donkey-anti-rabbit IgG POD (GE #NA9340V, 1:5000 in OSE) was added and incubated at RT for 1 h on shaker. For detection of rat IgGs a mixture of goat-anti-rat IgG1-POD (Bethyl #A110-106P), goat-anti-rat IgG2a-POD (Bethyl #A110-109P) and goat-anti-rat IgG2b-POD (Bethyl #A110-111P) 1:10000 in OSEP was added and incubated at RT for 1 h on shaker. After washing (6×90 μl/well with PBST-buffer) 25 μl/well TMB substrate (Roche, 11835033001) was added and incubated until OD 2-3. Measurement took place on a Tecan Safire 2 instrument at 370/492 nm.
(§2) The above table summarizes the binding of different rat anti-human HLA-G monoclonal antibodies, derived from wt protein IMS both of wt as well as OMT rats. Shown are the relative EC50 values [ng/ml] and maximal OD of the respective binding to rec. wt monomeric HLA-G protein or the socalled gegrafted HLA-G (HLA-A consensus sequence on HLA-G backbone) protein as assessed by ELISA. The ELISA was set up by coating the biotinylated wt HLA-G or consensus antigen to strepdavidin plates. After incubation and washing steps, the respective antibodies were bound in a concentration range from 10-0 μg in 1:2 dilution steps. Detection of bound antibodies was carried out by anti-Fc-antibody-POD conjugates. EC50 values were determined from the resulting binding curves at the antibody concentrations generating the half-maximal signal.

[2] = target: T1, recombinant soluble human HLA-G β2M MHC …; test: ELISA, biotinylated wt HLA-G monomer on streptavidin plate
Protocol: as §1, §2

[3] = target: T2, recombinant soluble human HLA-G β2M MHC class I complex, trimer (human); test: ELISA, HLA-G trimer coated at random on plate
T2 construct: Non-biotinylated; also called HLA-G Trimer; trimeric HLA-G
Protocol: as §2, with “IMS.” for “IMS both of wt as well as OMT rats.”, “[ng/ml]” for “[ng/ml] and maximal OD”, “monomeric, dimeric and trimeric” for “monomeric”, “proteins” for “protein or the socalled gegrafted HLA-G (HLA-A consensus sequence on HLA-G backbone) protein”, “HLA-G” for “HLA-G or consensus”, “signal. In case of the non-biotinylated HLA-G dimer and trimer antigens, immobilization was carried out by random coating on assay plates.” for “signal.”

[4] = target: T1, recombinant soluble human HLA-G β2M MHC …; test: blocking ELISA on biotinylated wt HLA-G; competitor c-myc ILT-2
Protocol: Streptavidin coated plates (Nunc, MicroCoat #11974998001) were coated with 25 µl/well biotinylated human wt HLA-G at a concentration of 500-1000 ng/ml and incubated at 4° C. overnight. After washing (3×90 μl/well with PBST-buffer) 25 μl anti-HLA-G samples were added in decreasing concentrations starting at 10 or 3 μg/ml, then diluted in 1:3 or 1:2 steps and incubated 1 h at RT. After washing (3×90 μl/well with PBST-buffer) 25 μl/well c-myc-tagged recombinant ILT-2 receptor was added at a concentration of 200 ng/ml and incubated for 1 h at room temperature. […] After washing (3×90 μl/well with PBST-buffer), 25 μl/well TMB substrate (Roche, 11835033001) was added and incubated until OD 2-3. Measurement took place on a Tecan Safire 2 instrument at 370/492 nm
The table above summarizes the extent of ILT-2 and ILT-4 blocking of different antibodies bound to HLA-G at a concentration of 3 μg/ml, relative to an HLA-G:receptor interaction that is not blocked. HLA-G-0090 was tested in a separate experiment for ILT2 blockade, ILT4 blocking was not assessed

[5] = target: T1, recombinant soluble human HLA-G β2M MHC …; test: competition ELISA, one antibody concentration; competitor coated ILT2-Fc
Protocol: (§3) The ELISA was set up by coating the Fc tagged ILT2 and ILT4 respectively to Maxisorp microtiter plates. After incubation and washing steps, the respective antibodies were added at a concentration of 100 nM. Soluble His tagged monomeric, dimeric or trimeric HLA-G was added to the wells. After incubation and washing steps, detection of bound receptor was carried out by anti-His-antibody-POD conjugates.
(§4) The above tables summarize the blocking of interaction between rec. HLA-G proteins (monomer and oligomers) to its receptors ILT2 and ILT4 by the described HLAG antibodies at a concentration of 110 nM (*HLAG-0090 was tested at a concentration of 44 nM) as assessed by ELISA. Shown are the % inhibitions of the HLA-G/receptor interaction (for ILT2 and ILT4). The less pronounced ILT4 inhibition depends on the major β2M dependent interaction of this receptor.

[6] = target: T2, recombinant soluble human HLA-G β2M MHC …; test: as above
Protocol: as §3, §4

[7] = target: T3, recombinant soluble human HLA-G β2M MHC class I complex, dimer (human); test: as above
T3 construct: Non-biotinylated; also called HLA-G Dimer; dimeric HLA-G
Protocol: as §3, §4

[8] = target: T3, recombinant soluble human HLA-G β2M MHC …; test: ELISA, HLA-G dimer coated at random on plate
Protocol: as §2, with “IMS.” for “IMS both of wt as well as OMT rats.”, “[ng/ml]” for “[ng/ml] and maximal OD”, “monomeric, dimeric and trimeric” for “monomeric”, “proteins” for “protein or the socalled gegrafted HLA-G (HLA-A consensus sequence on HLA-G backbone) protein”, “HLA-G” for “HLA-G or consensus”, “signal. In case of the non-biotinylated HLA-G dimer and trimer antigens, immobilization was carried out by random coating on assay plates.” for “signal.”

[9] = target: T1, recombinant soluble human HLA-G β2M MHC …; test: ELISA, biotinylated wt HLA-G monomer on streptavidin plate; remark: listed apart in the source
Protocol: as §1
as §2, with “IMS.” for “IMS both of wt as well as OMT rats.”, “[ng/ml]” for “[ng/ml] and maximal OD”, “monomeric, dimeric and trimeric” for “monomeric”, “proteins” for “protein or the socalled gegrafted HLA-G (HLA-A consensus sequence on HLA-G backbone) protein”, “HLA-G” for “HLA-G or consensus”, “signal. In case of the non-biotinylated HLA-G dimer and trimer antigens, immobilization was carried out by random coating on assay plates.” for “signal.”

Row | Binder | EC50 [1] | Max. OD [2] | EC50 [3] | % inh. ILT2 (3 µg/ml antibody) [4] | % inhibition of ILT2 binding [5] | % inhibition of ILT2 binding [6] | % inhibition of ILT2 binding [7] | EC50 [8] | EC50 [9]
1 | B1 | 10.4 ng/mL | 3.4 OD | – | – | – | – | – | – | –
2 | B2 | 7.19 ng/mL | 1.6 OD | 1.86 nM | 72.8% | 101% | 100% | 99% | 1.87 nM | 7.19 nM
3 | B3 | 7.35 ng/mL | 1.4 OD | 5.29 nM | 14% | -450% | 70% | 25% | 4.1 nM | 7.35 nM
4 | B4 | 8.6 ng/mL | 2.3 OD | 4.87 nM | 17.4% | -437% | 67% | 23% | 5.31 nM | 4.95 nM
